Source: US20030082156A1 (priority 1999, published 2003)
Like-named read-outs stand apart in the source and are kept apart here.

Assays:
[1] = biological target: dEV8 (peptide name as printed; residues not given) peptide on H-2Kb (mouse)
[2] = biological target: dEV8 (peptide name as printed; residues not given) peptide on H-2Kb (mouse); remark: listed apart in the source
[3] = biological target: Tax (peptide residues not given) peptide on HLA-A2 (human)
[4] = biological target: Tax (peptide residues not given) peptide on HLA-A2 (human); remark: listed apart in the source
[5] = biological target: hen egg conalbumin (CA) peptide on I-Ak (mouse); test: single-chain
[6] = biological target: vesicular stomatitis virus nuclear protein (VSV8) peptide on H-2Kb (mouse); test: full-length, on cells
[7] = biological target: vesicular stomatitis virus nuclear protein (VSV8) peptide on H-2Kb (mouse)
[8] = biological target: vesicular stomatitis virus nuclear protein (VSV8) peptide on H-2Kb (mouse); remark: listed apart in the source
[9] = biological target: VSV8/K^b (as in the statement of the monomeric affinity; construct not described) (vesicular stomatitis virus; mouse) (UniProt P01901); test: method not stated; BIAcore implied by the sentence
[10] = biological target: VSV8 octapeptide (RGYVYQGL) bound to K^b on presenting cells (vesicular stomatitis virus; mouse) (UniProt P01887); test: cell-based or functional assay
N15 TCR = format: binding, mouse; conditions: read-out: monomeric affinity of the N15 TCR for peptide/K^b
[11] = tested on: DP thymocytes of N15 tg Rag-2−/− H-2b mice; conditions: mouse, in vivo
[12] = tested on: N15 TCRs on immature thymocytes; format: cell-based, mouse
[13] = biological target: CA/I-A^k: hen egg conalbumin peptide (residues 134-146) fused by a flexible linker to the N-terminus of the I-A^k β chain, with the I-A^k α chain; leucine zippers cleaved off by thrombin (hen; mouse) (UniProt P02789); test: method not stated; cited as refs. 5, 26 ('Our unpublished results')

Sequence of UniProt P01901 (P01901 22-305): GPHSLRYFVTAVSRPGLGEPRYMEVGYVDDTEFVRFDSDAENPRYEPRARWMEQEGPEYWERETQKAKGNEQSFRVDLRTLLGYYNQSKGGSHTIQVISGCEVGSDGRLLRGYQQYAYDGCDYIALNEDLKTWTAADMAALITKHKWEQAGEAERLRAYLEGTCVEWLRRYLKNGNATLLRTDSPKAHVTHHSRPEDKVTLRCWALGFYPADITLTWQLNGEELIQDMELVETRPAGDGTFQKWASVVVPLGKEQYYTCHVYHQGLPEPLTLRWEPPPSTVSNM

2C TCR
Kd [1]: 100 µM
orientation angle of the TCR on the pMHC [2]: 45 °

A6 TCR
orientation angle of the TCR on the pMHC [3]: 56 °

B7 TCR
orientation angle of the TCR on the pMHC [4]: 70 °

D10 TCR
orientation angle of the TCR on the pMHC [5]: 80 °

N15 TCR
% CD8 SP thymocytes after 7 days of FTOC [6]: 1%
% DP thymocytes 24 h after injection [6]: 14%
Kd [7]: > 200 µM
orientation angle of the TCR on the pMHC [8]: 54 °

N15 TCR (as in the statement of its monomeric affinity; construct not described)
Kd [9]: > 200 µM

N15 TCR (on thymocytes and splenic T cells of N15 TCR transgenic mice)
DP thymocyte dulling assay: fraction of DP thymocytes dulled [10]: 5%

RGYVYQGL [VSV8]
Kd (N15 TCR): > 200 µM
surviving thymocytes that were DP [11]: < 10%
% of DP thymocytes ([11]; iv): 14%
fraction of DP thymocytes dulled [12]: ~5%
thymocytes falling in the expected CD4/CD8 expression range of DP thymocytes [12]: 10-26%

scD10 TCR (single chain V module of the D10 TCR: Vβ8.2-linker-Vα2, 237 residues, Cys235Ser)
Kd [13]: 1 to 2 µM
